According to the supplement of paper PMC10724198:
± gives the standard deviation of the averaged measurements.

Test system: Saccharomyces cerevisiae
Assay: protein stability index of tFT-peptide fusion (C-terminal peptide) (PSI (0-1 scale)); higher = more stable (slower turnover)
Conditions: genetic background: wild type; temperature: 30 C
Method: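 Multiplexed protein stability (MPS) profiling in S. cerevisiae. Random 12-aa peptides (tFT-X12 library) are fused to the C-terminus of a sfGFP-mCherry tandem fluorescent timer, after mCherry and a GGGS linker. Cells are FACS-sorted into 8 mCherry/sfGFP bins and deep-sequenced. The protein stability index (PSI) is the read-weighted bin average, scaled from 0 (unstable) to 1 (stable). Only peptides with >10 reads are reported; cells were grown at 30 °C in SC-His with glucose.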
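Further: PSI is a weighted mean of sequencing reads over stability bins, variants kept only with over 10 reads, mCherry proximal and sfGFP distal, peptide attached via GGGS linker.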

| Sequence | protein stability index |
| --- | --- |
| SPVPRPGTTRRP | 0.721 ± 0.031 |
| PPLPPLPPLSVS | 0.675 ± 0.029 |
| AGQGGWREAGGG | 0.676 ± 0.027 |
| GIDARGLYGGAL | 0.66 ± 0.032 |
| PPLPPRPTPPPR | 0.711 ± 0.04 |
| RLPSSSFSPHRA | 0.688 ± 0.0069 |
| LLDRGLLSALLA | 0.563 ± 0.034 |
| LLSLRSPCSSSR | 0.697 ± 0.066 |
| RSSGHQIRDKSA | 0.74 ± 0.022 |
| PCGGVGRECVRG | 0.762 ± 0.032 |
| KRTKKKKKMELE | 0.719 ± 0.013 |
| QKRKMIEKEKEK | 0.768 ± 0.098 |
| KKTEKKYNRNRG | 0.786 ± 0.1 |
| CLGLRFDFYGFV | 0.702 ± 0.065 |
| WRVFPVVSCSSS | 0.6312 ± 0.0053 |
| PQPPRPARLCFP | 0.705 ± 0.028 |
| GFLWLLGGVLGV | 0.658 ± 0.082 |
| SLPHSFIYYPLP | 0.755 ± 0.037 |
| KKQQTIKKKKKR | 0.7014 ± 0.003 |
| PAPRFPFLFHPL | 0.776 ± 0.035 |
| LSGGAVVEVHFL | 0.674 ± 0.011 |
| QSRFFCDKKVWG | 0.6934 ± 0.0049 |
| HVPHFCLSPTII | 0.758 ± 0.14 |
| PRQLPVRKVSTG | 0.7042 ± 0.0022 |
| WSSTTISVQRGL | 0.7 ± 0.089 |

| Sequence | protein stability index |
| --- | --- |
| GGGGAGFRGGIE | 0.68 ± 0.0019 |
| FFPSFVLSFPCL | 0.641 ± 0.069 |
| PHPDPDHCHAPP | 0.713 ± 0.1 |
| RTPAPENPPTSP | 0.609 ± 0.06 |
| ALLGIAGGQAAQ | 0.714 ± 0.028 |
| PFTTSSQPDSPI | 0.735 ± 0.065 |
| PPPPPRLPPRPP | 0.6152 ± 0.0052 |
| SPISATISPSFR | 0.728 ± 0.018 |
| LRRRGHCLRGEL | 0.6313 ± 0.0023 |
| RITVPIGYHSVS | 0.6891 ± 0.0009 |
| LNRTLCYKCILR | 0.564 ± 0.018 |
| PLPPSPLPRPCP | 0.761 ± 0.054 |
| EPESPVTARAKP | 0.672 ± 0.031 |
| EVGVRCRVGVWV | 0.567 ± 0.029 |
| NIKIILPWNPPE | 0.667 ± 0.013 |
| FLLVLPLSGLIV | 0.528 ± 0.016 |
| KMSEERIGIEKN | 0.7038 ± 0.0029 |
| LCCMFGLAGRGV | 0.654 ± 0.0083 |
| SPLSLPTRSCLL | 0.7075 ± 0.0066 |
| IWGLSSLYGCGW | 0.728 ± 0.011 |
| FLGAELRRLGSL | 0.703 ± 0.071 |
| PPPPPSPPLSPI | 0.728 ± 0.063 |
| DAGRLLIVSVDS | 0.662 ± 0.036 |
| LSDGATDIGCLL | 0.741 ± 0.037 |
| DLSFVLAPFVSP | 0.6683 ± 0.0038 |

| Sequence | protein stability index |
| --- | --- |
| FALWAGGTWFRT | 0.656 ± 0.013 |
| LPRSAPLHFPAC | 0.688 ± 0.02 |
| SLYPPPAPRASP | 0.773 ± 0.036 |
| PSPPAPFPVCLL | 0.617 ± 0.011 |
| VFNLSIPLPSFP | 0.707 ± 0.046 |
| PPILHPPPDIPG | 0.701 ± 0.042 |
| DWVLGRRDTRKP | 0.752 ± 0.025 |
| PRNTPPRRAPTR | 0.6485 ± 0.0031 |
| PLPPPAFPPLDP | 0.671 ± 0.021 |
| LVWGQPWKMPVV | 0.699 ± 0.012 |
| NRQNYAEDLKSC | 0.683 ± 0.02 |
| LFFFPRRLSPPT | 0.722 ± 0.05 |
| SFNDVPPPEGIK | 0.67 ± 0.038 |
| DDATLAVCRGWV | 0.731 ± 0.028 |
| SLRILFDLRISL | 0.605 ± 0.031 |
| EERHAEPRNCMF | 0.773 ± 0.015 |
| GKAIKRPIGIRG | 0.683 ± 0.019 |
| GSGGGEVCGCGG | 0.681 ± 0.048 |
| GSQLFESVVVRV | 0.679 ± 0.061 |
| LIRRTECPRSTS | 0.6782 ± 0.0048 |
| LHPPHPPPSPPP | 0.626 ± 0.1 |
| VVREARTLNGDM | 0.671 ± 0.099 |
| GGGRRRVAGREL | 0.701 ± 0.048 |
| VKEVSVIKNHQG | 0.454 ± 0.11 |
| GGGRGGGEWVGG | 0.651 ± 0.043 |

| Sequence | protein stability index |
| --- | --- |
| PPLPLPLPPPTP | 0.767 ± 0.088 |
| GLRGFCGVIEFF | 0.721 ± 0.14 |
| QPNDIEIYTLLT | 0.652 ± 0.05 |
| VSVSERVGNMLP | 0.679 ± 0.035 |
| FGGRGRVASRLV | 0.763 ± 0.086 |
| EKIRGFPGEIGE | 0.694 ± 0.022 |
| RSCAHATLAYVP | 0.771 ± 0.082 |
| YSNCPQPRVISD | 0.6 ± 0.063 |
| PPRSLPPPPFPF | 0.749 ± 0.01 |
| CGGSWMRGLRDL | 0.72 ± 0.043 |
| LPPPPRPLPPSP | 0.696 ± 0.04 |
| VPLGFPPPPLDP | 0.727 ± 0.038 |
| PEGPHTRTVVPA | 0.66 ± 0.0088 |
| NGGFIGVYICRT | 0.73 ± 0.13 |
| GDGGGMVEGLSR | 0.66946 ± 0.00014 |
| PPPAPRRTRRPS | 0.698 ± 0.047 |
| ESASSLNFTSLM | 0.731 ± 0.053 |
| PSPALPSLSTPL | 0.669 ± 0.047 |
| EKVWTLTGLSHL | 0.722 ± 0.04 |
| PDVPLASPSPFR | 0.625 ± 0.023 |
| GSRIVCFWSGAG | 0.717 ± 0.011 |
| NKRKTKNKERRA | 0.65 ± 0.012 |
| PTPPSPTPLPAT | 0.679 ± 0.043 |
| KALGFHGGLHRF | 0.5733 ± 0.0027 |
| KKIQKKTPAIDG | 0.671 ± 0.1 |

| Sequence | protein stability index |
| --- | --- |
| QGKPSKWRSGSI | 0.646 ± 0.048 |
| PARASLRCLCRN | 0.662 ± 0.055 |
| NGCVRNVSSLVF | 0.607 ± 0.066 |
| EWMIHQFCRVPV | 0.62 ± 0.0097 |
| PSPPTLILPPHP | 0.663 ± 0.0095 |
| VSPPPRFPLLPS | 0.669 ± 0.03 |
| IRKDRGYETGKR | 0.6746 ± 0.0043 |
| PLLDPFFPLVFT | 0.58 ± 0.019 |
| KRRKKKSKERER | 0.672 ± 0.015 |
| WGGRSGTWGLVG | 0.803 ± 0.1 |
| PILFHIPHRHVP | 0.749 ± 0.25 |
| GMLCRAGPVRNV | 0.732 ± 0.011 |
| GKKKHRSNPRRS | 0.725 ± 0.067 |
| PPPPPPLITPPL | 0.666 ± 0.052 |
| PLCPPPPYPPRS | 0.745 ± 0.043 |
| HPPPSNYWPSSA | 0.658 ± 0.084 |
| WLFFVCEDAGGC | 0.68 ± 0.021 |
| IKRKKKKKKKRD | 0.6558 ± 0.0015 |
| PPSGGYFSTCPP | 0.731 ± 0.03 |
| VPPHLLAPDPRL | 0.7158 ± 0.0066 |
| VLLYAPLLPPLA | 0.622 ± 0.018 |
| MGGRAEGWVPVP | 0.68 ± 0.15 |
| GRHRGNVWGAVA | 0.701 ± 0.043 |
| MLLLIDTSGGWS | 0.71 ± 0.011 |
| RLLLRNAASSSS | 0.691 ± 0.042 |

| Sequence | protein stability index |
| --- | --- |
| KKKKKHKKPIES | 0.666 ± 0.022 |
| HCPIPWASLNCL | 0.665 ± 0.0082 |
| LGGGGGVECRVG | 0.672 ± 0.058 |
| SAVRHPRPGRPG | 0.6938 ± 0.0053 |
| GKECLIRKSHDG | 0.674 ± 0.011 |
| PPPRPPASLPSL | 0.5833 ± 0.0033 |
| ITMYAPEVDKRR | 0.709 ± 0.017 |
| GGAGLGVVLGWW | 0.6833 ± 0.0062 |
| GQPLLVCMSGFW | 0.684 ± 0.01 |
| GRTCCGGGVGFG | 0.595 ± 0.033 |
| LYDSNLILSIPC | 0.617 ± 0.14 |
| PRRRLVLDDRPT | 0.72823 ± 6.5e-05 |
| WSPFSLISLSPP | 0.725 ± 0.099 |
| PVAVSQPNGPKD | 0.633 ± 0.031 |
| VGRESVVGEQFV | 0.625 ± 0.025 |
| HGLLDPLSILLY | 0.668 ± 0.013 |
| FRKTDYMVHNGI | 0.664 ± 0.015 |
| LKGVNPVNLHEL | 0.66 ± 0.039 |
| LLVLSTVFNYPI | 0.655 ± 0.071 |
| HLSPGRLPPPVQ | 0.7136 ± 0.006 |
| GGGWGRAYSWWV | 0.705 ± 0.012 |
